This passage reports self-cleavage results from the RNAGym collection of RNA variant scans (doi:10.7554/elife.80360).

B1: HDV Ribozyme (parent)
chain: GGCCGGCAUGGUCCCAGCCUCCUCGCUGGCGCCGGCUGGGCAACAUUCCGAGGGGACCGUCCCCUCGGUAAUGGCGAAUGGGACCCA

This data set covers variants of B1. Nature of the data set: self-cleavage, relative activity (ratio to wild type); higher = more cleavage; co-transcriptional.
Take G28A G73C: the self-cleavage is 0.0256.
Take G17A C84U: the self-cleavage was 0.598.
The value for G28A C63A was 0.128.
The value for A71G U79G was 0.256.
For C24A C48G, the self-cleavage is 0.47.
For U27C C41A the value was 0.192.
Regarding G76A A78G, the self-cleavage was determined as 0.816.
G38U C85G: the self-cleavage was found to be 0.295.
For G59C C66G the value was 1.14; for G39C U72C, 0.155.
The value for G31C A45C was 0.104.
For U47C G73U the value was 0.225; for U47C G73A, 0.464.
As for G34U U47A, the self-cleavage worked out at 0.128.
For G28C U60C the value was 0.0852; for C3U C26G, 0.989; for G10C A71C, 0.802.
For A16G C24A the value was 0.569.
For G2C G76A the value was 0.13; for C7G C26A, 0.138.
Turning to G39A C62U, the self-cleavage is 0.508.
In the case of C48G G59U, the self-cleavage amounted to 1.07.
For C66U G68C the value was 0.753; for G54A C62U, 1.05; for C26G G55U, 0.975.
For G6C C7U the value was 0.787; for C3A G11C, 0.0963; for G50C G52A, 0.66.
Turning to U60C A78U, the self-cleavage is 0.229.
For A56G C75A the value was 0; for U65A, 0.966; for U72A C85G, 0.831.
For C41G C58G the value was 0.974.
For C24A A45U the value was 0.541.
Turning to U20C C63G, the self-cleavage worked out at 0.104.
With C30G G39U, the self-cleavage was 0.0692.
The value for C58A G76C was 1.1; that for A43G was 0.618.
For G50U G81U the value was 0.341; for G11U G29A, 0.158; for U9C A83G, 0.665.
The value for G11C A45C was 0.116.
G38C A51G: the self-cleavage came to 0.309.
The value for G38A C61U was 0.0573.
For G1U G74C the value was 0.262; for G39U G80A, 0.151; for A45G C61A, 1.15.
The value for G5U U37G was 0.0755; that for C58A U72A was 0.883; that for G10U C61G was 0.635.
As to G54C G59A, the self-cleavage turned out to be 0.926.
For G55U C57U the value was 1.11; for G35U A43U, 0.282; for C36U U72A, 0.324.
For C24A G40C the value was 0.117; for C4A A83G, 0.234.
Take U9C G80U: the self-cleavage was 0.193.
C21A C84A: the self-cleavage is 0.
For A56C U65C the value was 1.33; for C33U G52C, 0.596; for A8C G73C, 0.115.
The value for C30U G73A was 0.277; that for C18G C36U was 0.0852; that for U12G G28U was 0.
For G29A G39A the value was 0.0863; for C13G C57U, 0.0426.
For C30G G80A, the self-cleavage was 0.141.
Regarding U27C A77C, the self-cleavage is 0.192.
The value for U47G G53A was 1.15; that for A16G U37C was 0.997; that for G40C G55C was 0.347.
Turning to G6A C58G, the self-cleavage amounted to 0.68.
For C4G G55C the value was 0.185; for G38C A45U, 0.213.
For A45C G53A the value was 0.564.
The value for A43G G80A was 0.115.
Take G10C U60C: the self-cleavage amounted to 0.8.
For G76A A87G the value was 1.01.
The value for C62A G76A was 1.13; that for U60C U72G was 0.767; that for C22G A45C was 0.0489.
For G28U C44A the value was 0; for G50U C64U, 0.901; for C63U U72G, 0.776.
C24U U47G: the self-cleavage was 0.266.
For G31A C36A the value was 0.117; for C13A G35A, 0.0339.
As to C4A G55C, the self-cleavage amounted to 0.31.
As for A8U C44A, the self-cleavage was found to be 0.449.
For U65G A83G the value was 0.698; for C19G C22A, 0.
With C7A A78G, the self-cleavage came to 0.0875.
The value for G52U G55U was 0.822; that for U65C A78U was 0.312; that for A8C C13A was 0.266.
Consider C32U C86U, for which the self-cleavage turned out to be 0.686.
Regarding G10C G50A, the self-cleavage amounted to 0.997.
For A16C C41A the value was 0.388; for C33U C48G, 1.05.
For U72G G74A the value was 0.431; for C36U C49A, 0.795; for C66A U69G, 0.755.
For U46G A70C the value was 0.665; for G29U C86A, 0.169.
Regarding C41A U60C, the self-cleavage was 1.05.
On to U12A G74C, for which the self-cleavage amounted to 0.135.
For A42G U79A the value was 0.573.
For G10U G54U the value was 0.865; for C49A A83C, 0.6.
The value for G50C A70G was 0.917; that for C48U G80U was 0.194.
C4G U12C: the self-cleavage stood at 0.0665.
For C4G U27G the value was 0.268; for C14G G50A, 1.15; for C21G G67C, 0.0978.
Turning to C19A U69G, the self-cleavage is 0.12.
The value for G25A U65G was 0.269; that for G68C A87G was 0.948.
The value for A43C G76C was 0.604; that for C15G C33U was 0.415.
The value for A45C G82U was 0.397; that for C7U G80A was 0.164; that for G29U C64U was 0.211.
As for C49U A56G, the self-cleavage worked out at 1.04.
For A16U C36G the value was 0.0519.
For G2A C33U the value was 0.035; for C66G U69A, 0.917.
For G28A C32A the value was 0.234.
For the variant G34C C64U, the self-cleavage turned out to be 0.271.
For U46G C61G the value was 0.649; for G29A A70G, 0.17.
On to U9G U79G, for which the self-cleavage was determined as 0.923.
In the case of A42C C63A, the self-cleavage was 0.277.
As for C33G G39C, the self-cleavage was determined as 0.0386.
For G52A G67C the value was 0.878; for U37C G74C, 0.193.
For G25C C66A the value was 0.0627.
The value for U9C C22U was 0.727; that for G11A G34A was 0.358.
With C22G A71G, the self-cleavage worked out at 0.0573.
For U23G A56G the value was 0.787; for G5U C24A, 0.158.
For A16C A56G, the self-cleavage turned out to be 0.776.
For C18G A78U the value was 0.0723; for A77G A83U, 0.635.
With G31A U60C, the self-cleavage was 0.32.
For C21A C22G the value was 0.108; for C33U C41U, 0.646; for C26U A43U, 0.708.
For C44U G81C the value was 0.0923; for A71U A78U, 0.185.
For G59U C84U the value was 0.865.
Turning to U9C G17U, the self-cleavage was found to be 0.914.
For C48A A83G the value was 0.791.
As to G6U G55A, the self-cleavage was determined as 0.59.
The value for U47A G74U was 0.447; that for G31C U47C was 0.499; that for C48G G53U was 0.893.
The value for G54U G81C was 0.299.
The value for U47C A78C was 0.0898.
For C44G A77C, the self-cleavage is 0.297.
In the case of U37A G50C, the self-cleavage was determined as 0.0489.
The value for G50A A70G was 0.763; that for U9A G80C was 0.189.
For G10C G55U the value was 0.831.
For C26A C66G the value was 1.15; for G53C G55A, 0.898.
